According to patent publication US20030186841:

What was measured:
Experiment in all cases: cell_activity
2C7LBDAS (synthetic) = details: about; estrogen, 6x2C7 SV40 luc, Cos cells
C7LBDAS (synthetic) = details: ligand-dependent, 6x2C7pGL3Luc
[1] = system: C7LBDAS G400V G400V (human ER numbering) (synthetic); details: ligand-dependent, 6x2C7pGL3Luc

Question: How did the activity (fold induction) (2C7LBDAS (synthetic)) turn out when “GCGTGGGCG (double strand) [C7 site of 6x2C7 luc reporter]” was run?
Answer: Its activity (fold induction) is 2.

Question: And the activity (fold induction) (C7LBDAS (synthetic))?
Answer: The activity (fold induction) was 10.

Question: And the activity (fold induction) [1]?
Answer: Its activity (fold induction) is 420.
